Legend:
[1] = biological target: His-tagged human BCMA (ACRO Biosystems, Cat. #: BCA-H522y) (human); assay: SPR (BIAcore T200) affinity ranking; crude sdAb captured via tag, antigen at 100 nM
[2] = biological target: Fc-fused Cynomolgus BCMA (ACRO Biosystems, Cat. #: BCA-C5253) (cynomolgus); assay: as above

Sequence of His-tagged human BCMA (ACRO Biosystems, Cat. #: BCA-H522y) (human) (Q02223 1-54): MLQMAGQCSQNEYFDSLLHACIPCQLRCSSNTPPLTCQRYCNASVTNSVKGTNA

B1: anti-BCMA sdAb BCMA6 (VHH, part only)
VHH: QMQLVESGGGSVQAGGSLRLSCTASGYTFDDSAMGWYRQAPGNECELVSSISSDGSTYYSDSVKGRFTISQDNAKNTMYLQMNSLKPEDTAVYSCAASSGEDGGSWSTPCHFFGYWGQGTQVTVSS
modifications: affinity tag
With B1 the Kd [1] was 4.9 nM, the koff [1] was 0.026 s⁻¹ and the kon [1] was 5.4e+06 M⁻¹ s⁻¹. It also gave a Kd [2] of 0.83 nM, a koff [2] of 0.00091 s⁻¹ and a kon [2] of 1.1e+06 M⁻¹ s⁻¹.

B2: anti-BCMA sdAb BCMA1 (VHH, part only)
VHH: QVQLVESGGGSVQAGGSLRLSCKASGAIYDTNCMAWFRQTPGKEREGVATIDLGNPITYYADSVKGRFTISRDNAKNTMYLQMNSLEPEDTAMYYCAATSWWPCTTFNAGYANWGQGTQVTVSS
modifications: affinity tag
B2 was tested, and the Kd [1] was 10 nM, the koff [1] was 0.29 s⁻¹ and the kon [1] was 2.9e+07 M⁻¹ s⁻¹. For the same binder, the Kd [2] was 0.64 nM, the koff [2] was 0.00043 s⁻¹ and the kon [2] was 670000 M⁻¹ s⁻¹.

B3: anti-BCMA sdAb BCMA13 (VHH, part only)
VHH: QVHLVESGGGSVQAGGSLRLSCKASGAIYDTNCMAWFRQTPGKEREGVATIDLGNPITYYADSVKGRFTISRDNAKNTMYLQMNSLKPEDTAMYYCAATSWWPCPANNVGYANWGQGTQVTVSS
modifications: affinity tag
In the case of B3, the Kd [1] is reported as 77 nM, the koff [1] is reported as 0.053 s⁻¹ and the kon [1] is reported as 690000 M⁻¹ s⁻¹. For the same binder, the Kd [2] was 13 nM, the koff [2] was 0.018 s⁻¹ and the kon [2] was 1.4e+06 M⁻¹ s⁻¹.

B4: anti-BCMA sdAb BCMA11 (VHH, part only)
VHH: QVQLVESGGGVVQPGGSLRLSCAASGFAFSNYAMTWGRQAPGQRLEWVSTIDSGGGSTTYSDSVKGRFTISRDNAKNTLYLQLNNLKSEDTAVYYCSENVDCNGDYCYRANYWGQGTQVTVSS
modifications: affinity tag
B4 showed a Kd [1] of 53 nM, a koff [1] of 0.009 s⁻¹ and a kon [1] of 170000 M⁻¹ s⁻¹. For the same binder, the Kd [2] was 16 nM, the koff [2] was 0.007 s⁻¹ and the kon [2] was 450000 M⁻¹ s⁻¹.

B5: anti-BCMA sdAb BCMA8 (VHH, part only)
VHH: QVQLVESGGGSVQAGGSLRLSCAASGGTRSWNYMAWFRQAPGKEREDVAIIDNVGSTRYADSVKGRFTISQDTAQNTLYLQMNSLKPEDTAMYYCAARVSWCEDPPCGFDYWGQGTQVTVSS
modifications: affinity tag
With B5 the Kd [1] was 48 nM, the koff [1] was 0.37 s⁻¹ and the kon [1] was 7.8e+06 M⁻¹ s⁻¹. The Kd [2] was 13 nM and the koff [2] was 560 s⁻¹.

B6: anti-BCMA sdAb BCMA9 (VHH, part only)
VHH: QVQLVESGGGSVQAGGSLRLSCKSSGAPYSSNCMAWFRQTPGKGREGVATIDLASHDTYYADSVKGRFTISRDNAKNTMYLQMNSLKPEDTAMYYCAATSWWPCTTFNGGYANWGQGTQVTVSS
modifications: affinity tag
For B6, the Kd [1] was 8.5 nM, the koff [1] was 0.42 s⁻¹ and the kon [1] was 5e+07 M⁻¹ s⁻¹. It also gave a Kd [2] of 2.4 nM, a koff [2] of 0.0015 s⁻¹ and a kon [2] of 650000 M⁻¹ s⁻¹.

B7: anti-BCMA sdAb BCMA12 (VHH, part only)
VHH: QVHLVESGGGSVQAGGSLRLSCKSSGATYSSNCMAWFRQTPGKEREGVATIDLASHGTYYADSVKGRFTISRDNAKNTMYLQMSGLRPEDTALYYCAATSWWPCTTFNGGYASWGQGTQVTVSS
modifications: affinity tag
Binder B7 has a Kd [1] of 23 nM, a koff [1] of 0.025 s⁻¹ and a kon [1] of 1.1e+06 M⁻¹ s⁻¹. It also gave a Kd [2] of 4.3 nM, a koff [2] of 0.004 s⁻¹ and a kon [2] of 940000 M⁻¹ s⁻¹.

B8: anti-BCMA sdAb BCMA7 (VHH, part only)
VHH: QVHLMESGGGSVQSGGSLRLSCAASGYTYSSYCMAWFRQAPGKEREGVAAIASDGSTYYTDSVKGRFTISQDNAKNTLYLQMNSLKPEDTAMYYCGADPVGCSWPDYWGQGTQVTVSS
modifications: affinity tag
Binder B8 has a Kd [1] of 46 nM, a koff [1] of 0.1 s⁻¹ and a kon [1] of 2.3e+06 M⁻¹ s⁻¹. For the same binder, the Kd [2] was 43 nM, the koff [2] was 0.056 s⁻¹ and the kon [2] was 1.3e+06 M⁻¹ s⁻¹.

B9: anti-BCMA sdAb BCMA10 (VHH, part only)
VHH: QVQLAESGGGLVQPGGSLRLSCAGSGFTFSSYDMNWVRQAPGKGLERVSTTFNGDDGTNYADSVLGRFTASRDKAKNTLYLQMNSLKTEDTAVYYCAAAVPGVDWYDTTRYKYWGQGTQVTVSS
modifications: affinity tag
B9 showed a Kd [1] of 47 nM, a koff [1] of 0.13 s⁻¹ and a kon [1] of 2.8e+06 M⁻¹ s⁻¹. For the same binder, the Kd [2] was 50 nM, the koff [2] was 0.04 s⁻¹ and the kon [2] was 790000 M⁻¹ s⁻¹.
